{"source": "paper PMC12450071", "target": "JUNV GP1 (receptor-binding domain), subunit within the GPC on PV membranes (Junin virus strain MC2)", "experiment": "cryo-EM structure", "data": [{"substance": "JUNV GP1 (receptor-binding domain), subunit within the GPC on PV membranes (domain or fragment)", "values": [{"measurement": "stoichiometry N", "value": 3}]}]}
